In the RNAGym collection of RNA variant scans (doi:10.1073/pnas.2313332121):

B1: TPR t1 (parent)
chain: GACCAAUCUGCCCUCAGAGCUCGAGAACAUCUUCGGAUGCAGAGGAGGCAGGCUUCGGUGGCGCGAUAGCGCCAACGUCCUCAACCUCCAAUGCAUCCCACCACAUGAUGAUGCCUGAAGAGCCUUGGUUUUUUG

Variants of: B1
Assay: polymerase ribozyme fitness, log enrichment relative to wild type (log ratio); higher = more active; in vitro selection for triplet polymerase activity
In short: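 Fitness is a logarithmic measure of how a genotype enriched relative to the wild type, with replicate averages weighted by inverse variance. The logarithm uses base 2, and enrichment came from Illumina sequencing of input and output libraries. Those libraries were PCR-built, transcribed mutants of each subunit of a heterodimeric triplet polymerase ribozyme, passed through one triplicate in vitro selection round that included frozen incubation at −7 °C, gel excision of extended constructs and streptavidin-bead capture. Genotypes were kept only if they had ≥10 input reads and ≥1 read per output.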

Row | Variant | polymerase ribozyme fitness (log ratio)
1 | C28U C56G | -2.75
2 | C28U G69A | -4.67
3 | A27U G61A U87G | -2.42
4 | C28G C53U C56G G77A C88U | -1.92
5 | C28U G48A | -3.13
6 | C28U G48U | -2.79
7 | A29G A50C | -1.66
8 | C28G G93U A119G U129C | -4.2
9 | C28G G36U C72U C73U | -4.2
10 | A27U G52C C88U | -3.31
11 | C28U C70G | -4.94
12 | C28G G39C C49U G69A | -6.04
13 | A27U U30C C76A C99G C102A A105U C115U | -6.7
14 | A27U U116G | -5.63
15 | C28U C101A U106A | -1.04
16 | C28U A84G A90C G113C | -5.73
17 | A29C A50U C123U U129G | -4.5
18 | C28G G44U A111C G117C | -6.59
19 | A29C A50U | -2.67
20 | C28A G60A C97U U112A | -2.26
21 | C28U G36C C79G A111U | -6.86

Row | Variant | polymerase ribozyme fitness (log ratio)
22 | C28U C40A G71U U112C U126A | -3.58
23 | A27U U59A | -3.1
24 | A27U G51U C62A C70U C115G | -6.61
25 | C28U U129G | -2.18
26 | A29G C53A A90C C101U G113C | -2.81
27 | A29C U55C C72U C115A U133A | -2.23
28 | C28G C40U C53U C56G A91C C115U U129A | -5.15
29 | A29G A118U G120C | -1.87
30 | A29G A84C C94U U106A G120A U125G | -0.885
31 | A29C C56G | -3.25
32 | C28A C73A C94A A119U | -5.2
33 | A29G C53G U87C G113C | -3.02
34 | C28G G60U C80U C115U G120C C123A U131A | -6.73
35 | A27U G44U | -3.87
36 | A27U G71C | -4.45
37 | A29C G77U U81C | -4.43
38 | A27U G36U G60U | -4.13
39 | C28G C56G | -3.01
40 | C28G C56U | -2.39
41 | C28G U92C C123A | -3.8
42 | C28A C49U G69U G113A | -1.42

Row | Variant | polymerase ribozyme fitness (log ratio)
43 | C28A G61U | -3.73
44 | A29C G45C G52A C85U | -5.05
45 | C28G C49G G52A G120A | -4.24
46 | C28U C34A C53G C124A | -4.41
47 | A29G C34A | -4.34
48 | C28G G57U | -2.76
49 | C28G G57A | -4.66
50 | C28G C49U U92A G110A | -5.35
51 | C28U G39U G71C C99U G120A | -4.64
52 | A29G A37U A95C | -3.29
53 | C28A C70A | -4.81
54 | C28G A50C G61A C88A | -3.77
55 | A27U G63A | -4.36
56 | A27U G63C | -3.59
57 | A27U G63U | -5.66
58 | A29C G61A C88G C114G | -6.84
59 | A29C G51A | -6.28
60 | C28U G39C C53U G61U | -2.31
61 | A29C C79U | -3.18
62 | A29G A37G G63A C88U A111C | -3.49
63 | C28G A37G G48A C104U C123A | -2.85

Row | Variant | polymerase ribozyme fitness (log ratio)
64 | C28G G63U C70G C88A U106A U125G G128C | -4.76
65 | A27U U133C | -2.05
66 | C28G C76U | -3.02
67 | C28A G44A G48A C73U U106A | -5.87
68 | C28U C89U | -2.51
69 | A27U G117U | -4.76
70 | C28G U32C C101A | -3.79
71 | C28U C64U | -2.29
72 | A27U G36A A41C C56A G61A G120A | -5.6
73 | A29C G61C U87A | -4.41
74 | A29C A37G G47U C101U G110U | -5.5
75 | A27U G47U C124G | -1.62
76 | C28U G71A | -2.58
77 | C28U G71C | -2.78
78 | A27U G57U C73G U78C U96A A111U | -5.99
79 | C28G C64U U81A G93U C101U U112G | -5.16
80 | C28A A68G A74U G93A C114G | -7.51
81 | C28G U59A C89G A103G C104A U109G C123G U133A | -5.51
82 | C28U C40A | -2.12
83 | C28A U55G G71A | -5.6
84 | A27U G63A G69U U131C | -4.16
